Data on 14 molecules can be found in publication PMC6804253, “Predicting and Experimentally Validating Hot-Spot Residues at Protein–Protein Interfaces” (ACS Chemical Biology, 2019).

Experiment [1] has as its system PPIs of the SKEMPI data set (by PDBID). Kind of experiment: SKEMPI experimental ΔΔG, single mutations to alanine. The conditions noted are these: class of the SKEMPI experimental ΔΔG. The format is binding.
Experiment [2] shares this test system. The conditions noted are these: single mutation to alanine, ref SKEMPI, cited from earlier work; for sk_ddG_kJ (SKEMPI experimental ΔΔG): residue group SQNT; for sk_ddG_kJ: SKEMPI experimental ΔΔG of binding, complex by PDBID.

B1: 2WPT SA50A (protein, UniProt P04482 1-86, looked up, variant S50A)
Colicin-E2 immunity protein: MELKHSISDYTEAEFLEFVKKICRAEGATEEDDNKLVREFERLTEHPDGADLIYYPRDDREDSPEGIVKEIKEWRAANGKSGFKQG
Turning to B1, in experiment [1] (ref SKEMPI), the sk_class result is on record as “Positive (positive (a hot residue) ΔΔG ≥ 4.184 kJ/mol)”. Besides, the “sk_ddG_kJ (SKEMPI experimental ΔΔG, mutation to alanine)” value in experiment [2] (complex given by PDBID, chain and residue by mut_pdb) is given as 10.04 kJ.

B2: 1EMV SA29A (protein, UniProt P13479 1-86, looked up, variant S29A)
Colicin-E9 immunity protein: MELKHSISDYTEAEFLQLVTTICNADTSAEEELVKLVTHFEEMTEHPSGSDLIYYPKEGDDDSPSGIVNTVKQWRAANGKSGFKQG
B2: the sk_class entry in experiment [1] is “Neutral (neutral (little effect) 4.184 kJ/mol < ΔΔG > −4.184 kJ/mol)”. Besides, the “sk_ddG_kJ (SKEMPI experimental ΔΔG)” value in experiment [2] (complex given by PDBID) is recorded as 4.02 kJ.

B3: 1EMV NA69A (protein, UniProt P13479 1-86, looked up, variant N69A)
Colicin-E9 immunity protein: MELKHSISDYTEAEFLQLVTTICNADTSSEEELVKLVTHFEEMTEHPSGSDLIYYPKEGDDDSPSGIVATVKQWRAANGKSGFKQG
Take B3: in experiment [1], the sk_class result is given as “Neutral (neutral (little effect) 4.184 kJ/mol < ΔΔG > −4.184 kJ/mol)”. For the same molecule, the “sk_ddG_kJ (SKEMPI experimental ΔΔG)” value in experiment [2] (complex given by PDBID) was 1.17 kJ.

B4: 1EMV TA44A (protein, UniProt P13479 1-86, looked up, variant T44A)
Colicin-E9 immunity protein: MELKHSISDYTEAEFLQLVTTICNADTSSEEELVKLVTHFEEMAEHPSGSDLIYYPKEGDDDSPSGIVNTVKQWRAANGKSGFKQG
Turning to B4, in experiment [1], the sk_class entry was “Neutral (neutral (little effect) 4.184 kJ/mol < ΔΔG > −4.184 kJ/mol)”. Further, the “sk_ddG_kJ (SKEMPI experimental ΔΔG)” value in experiment [2] (complex given by PDBID) is given as 1.26 kJ.

B5: 1EMV SA50A (protein, UniProt P13479 1-86, looked up, variant S50A)
Colicin-E9 immunity protein: MELKHSISDYTEAEFLQLVTTICNADTSSEEELVKLVTHFEEMTEHPSGADLIYYPKEGDDDSPSGIVNTVKQWRAANGKSGFKQG
On to B5, for which, in experiment [1], the sk_class result was “Positive (positive (a hot residue) ΔΔG ≥ 4.184 kJ/mol)”. Moreover, in experiment [2] (complex given by PDBID), the “sk_ddG_kJ (SKEMPI experimental ΔΔG)” value is listed as 9.16 kJ.

B6: 1EMV SA48A (protein, UniProt P13479 1-86, looked up, variant S48A)
Colicin-E9 immunity protein: MELKHSISDYTEAEFLQLVTTICNADTSSEEELVKLVTHFEEMTEHPAGSDLIYYPKEGDDDSPSGIVNTVKQWRAANGKSGFKQG
For B6, the sk_class result in experiment [1] is “Neutral (neutral (little effect) 4.184 kJ/mol < ΔΔG > −4.184 kJ/mol)”. The “sk_ddG_kJ (SKEMPI experimental ΔΔG)” value in experiment [2] (complex given by PDBID) was 0.04 kJ.

B7: 1EMV SA63A (protein, UniProt P13479 1-86, looked up, variant S63A)
Colicin-E9 immunity protein: MELKHSISDYTEAEFLQLVTTICNADTSSEEELVKLVTHFEEMTEHPSGSDLIYYPKEGDDDAPSGIVNTVKQWRAANGKSGFKQG
On to B7, for which, in experiment [1], the sk_class entry is “Neutral (neutral (little effect) 4.184 kJ/mol < ΔΔG > −4.184 kJ/mol)”. In addition, the “sk_ddG_kJ (SKEMPI experimental ΔΔG)” value in experiment [2] (complex given by PDBID) is 3.64 kJ.

B8: 1AHW DC178A (protein, UniProt P13726 33-251, looked up, variant D178A)
extracellular domain: SGTTNTVAAYNLTWKSTNFKTILEWEPKPVNQVYTVQISTKSGDWKSKCFYTTDTECDLTDEIVKDVKQTYLARVFSYPAGNVESTGSAGEPLYENSPEFTPYLETNLGQPTIQSFEQVGTKVNVTVEDERTLVRRNNTFLSLRDVFGKDLIYTLYYWKSSSSGKKTAKTNTNEFLIAVDKGENYCFSVQAVIPSRTVNRKSTDSPVECMGQEKGEFRE
modifications: extracellular domain
For the molecule B8, in experiment [1] (ref SKEMPI), the sk_class result is reported as “Neutral (neutral (little effect) 4.184 kJ/mol < ΔΔG > −4.184 kJ/mol)”. The sk_ddG_kJ in experiment [2] was -2.01 kJ.

B9: 1DAN KT28A (protein, UniProt P13726 33-251, looked up, variant K28A)
extracellular domain: SGTTNTVAAYNLTWKSTNFKTILEWEPAPVNQVYTVQISTKSGDWKSKCFYTTDTECDLTDEIVKDVKQTYLARVFSYPAGNVESTGSAGEPLYENSPEFTPYLETNLGQPTIQSFEQVGTKVNVTVEDERTLVRRNNTFLSLRDVFGKDLIYTLYYWKSSSSGKKTAKTNTNEFLIDVDKGENYCFSVQAVIPSRTVNRKSTDSPVECMGQEKGEFRE
modifications: extracellular domain
For the molecule B9, the sk_class result in experiment [1] (ref SKEMPI) is recorded as “Neutral (neutral (little effect) 4.184 kJ/mol < ΔΔG > −4.184 kJ/mol)”. In experiment [2], the sk_ddG_kJ is given as 0.50 kJ.

B10: 1DAN KT41A (protein, UniProt P13726 33-251, looked up, variant K41A)
extracellular domain: SGTTNTVAAYNLTWKSTNFKTILEWEPKPVNQVYTVQISTASGDWKSKCFYTTDTECDLTDEIVKDVKQTYLARVFSYPAGNVESTGSAGEPLYENSPEFTPYLETNLGQPTIQSFEQVGTKVNVTVEDERTLVRRNNTFLSLRDVFGKDLIYTLYYWKSSSSGKKTAKTNTNEFLIDVDKGENYCFSVQAVIPSRTVNRKSTDSPVECMGQEKGEFRE
modifications: extracellular domain
Consider B10, for which the sk_class result in experiment [1] (ref SKEMPI) was “Neutral (neutral (little effect) 4.184 kJ/mol < ΔΔG > −4.184 kJ/mol)”. Also, in experiment [2], the sk_ddG_kJ is reported as 1.38 kJ.

B11: 1DAN KT15A (protein, UniProt P13726 33-251, looked up, variant K15A)
extracellular domain: SGTTNTVAAYNLTWASTNFKTILEWEPKPVNQVYTVQISTKSGDWKSKCFYTTDTECDLTDEIVKDVKQTYLARVFSYPAGNVESTGSAGEPLYENSPEFTPYLETNLGQPTIQSFEQVGTKVNVTVEDERTLVRRNNTFLSLRDVFGKDLIYTLYYWKSSSSGKKTAKTNTNEFLIDVDKGENYCFSVQAVIPSRTVNRKSTDSPVECMGQEKGEFRE
modifications: extracellular domain
Take B11: the sk_class result in experiment [1] (ref SKEMPI) is on record as “Neutral (neutral (little effect) 4.184 kJ/mol < ΔΔG > −4.184 kJ/mol)”. In addition, in experiment [2], the sk_ddG_kJ is listed as -1.63 kJ.

B12: 1DAN ET24A (protein, UniProt P13726 33-251, looked up, variant E24A)
extracellular domain: SGTTNTVAAYNLTWKSTNFKTILAWEPKPVNQVYTVQISTKSGDWKSKCFYTTDTECDLTDEIVKDVKQTYLARVFSYPAGNVESTGSAGEPLYENSPEFTPYLETNLGQPTIQSFEQVGTKVNVTVEDERTLVRRNNTFLSLRDVFGKDLIYTLYYWKSSSSGKKTAKTNTNEFLIDVDKGENYCFSVQAVIPSRTVNRKSTDSPVECMGQEKGEFRE
modifications: extracellular domain
Turning to B12, in experiment [1] (ref SKEMPI), the sk_class entry is listed as “Neutral (neutral (little effect) 4.184 kJ/mol < ΔΔG > −4.184 kJ/mol)”. Moreover, the sk_ddG_kJ in experiment [2] is given as 2.76 kJ.

B13: 1DAN KT20A (protein, UniProt P13726 33-251, looked up, variant K20A)
extracellular domain: SGTTNTVAAYNLTWKSTNFATILEWEPKPVNQVYTVQISTKSGDWKSKCFYTTDTECDLTDEIVKDVKQTYLARVFSYPAGNVESTGSAGEPLYENSPEFTPYLETNLGQPTIQSFEQVGTKVNVTVEDERTLVRRNNTFLSLRDVFGKDLIYTLYYWKSSSSGKKTAKTNTNEFLIDVDKGENYCFSVQAVIPSRTVNRKSTDSPVECMGQEKGEFRE
modifications: extracellular domain
In the case of B13, the sk_class result in experiment [1] (ref SKEMPI) is “Positive (positive (a hot residue) ΔΔG ≥ 4.184 kJ/mol)”. In experiment [2], the sk_ddG_kJ is on record as 10.21 kJ.

B14: 1DAN ET26A (protein, UniProt P13726 33-251, looked up, variant E26A)
extracellular domain: SGTTNTVAAYNLTWKSTNFKTILEWAPKPVNQVYTVQISTKSGDWKSKCFYTTDTECDLTDEIVKDVKQTYLARVFSYPAGNVESTGSAGEPLYENSPEFTPYLETNLGQPTIQSFEQVGTKVNVTVEDERTLVRRNNTFLSLRDVFGKDLIYTLYYWKSSSSGKKTAKTNTNEFLIDVDKGENYCFSVQAVIPSRTVNRKSTDSPVECMGQEKGEFRE
modifications: extracellular domain
Take B14: in experiment [1] (ref SKEMPI), the sk_class entry was “Neutral (neutral (little effect) 4.184 kJ/mol < ΔΔG > −4.184 kJ/mol)”. Besides, the sk_ddG_kJ in experiment [2] is 0.46 kJ.
